Data on two molecules can be found in patent publication CN116761824A (SHANGHAI YAOMING HELIAN BIOTECHNOLOGY CO LTD, dated 2023).

For this assay, the target named is T1, 人Trop2 (human, UniProt P09758 27-323).
T1 construct: whole, on cells; also called 肿瘤相关钙信号转导器2; TACSTD2
T1 sequence (looked up): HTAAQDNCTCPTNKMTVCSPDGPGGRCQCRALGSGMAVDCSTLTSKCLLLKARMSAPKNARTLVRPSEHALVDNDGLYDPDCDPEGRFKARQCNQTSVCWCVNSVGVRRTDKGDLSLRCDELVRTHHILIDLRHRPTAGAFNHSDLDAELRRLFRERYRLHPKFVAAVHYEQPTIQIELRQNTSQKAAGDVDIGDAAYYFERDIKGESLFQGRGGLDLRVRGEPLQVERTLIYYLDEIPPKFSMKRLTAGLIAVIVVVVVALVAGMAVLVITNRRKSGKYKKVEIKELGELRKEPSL
Description: FACS on tumour cells (MDA-MB-468, HCC827, BxPC-3), Alexa647 goat anti-human IgG Fc detection.

B1: 抗-Trop2抗体886-36 (antibody, V domains shown)
VH: QVQLQQSGSELKKPGASVKVSCKASGYTFTNYGMNWVKQAPGQGLKWMGWINTYTGEPTYTDDFKGRFAFSLDTSVSTAYLQISSLKADDTAVYFCARGGFGSSYWYFDVWGQGSLVTVSS
VL: DIQLTQSPSSLSASVGDRVSITCKASQDVSIAVAWYQQKPGKAPKLLIYSASYRYTGVPDRFSGSGSGTDFTLTISSLQPEDFAVYYCQQHYITPLTFGAGTKVEIKR
notes: also called WBP886-36
For B1, the binding result is on record as “binds”.

B2: 886-36-MMAE (antibody, V domains shown)
VH: QVQLQQSGSELKKPGASVKVSCKASGYTFTNYGMNWVKQAPGQGLKWMGWINTYTGEPTYTDDFKGRFAFSLDTSVSTAYLQISSLKADDTAVYFCARGGFGSSYWYFDVWGQGSLVTVSS
VL: DIQLTQSPSSLSASVGDRVSITCKASQDVSIAVAWYQQKPGKAPKLLIYSASYRYTGVPDRFSGSGSGTDFTLTISSLQPEDFAVYYCQQHYITPLTFGAGTKVEIKR
modifications: MC-vc-PAB-MMAE on cysteines freed by partial TCEP reduction of interchain disulfides; mostly in the Fab domain; mainly DAR4 (82.3%)
Consider B2, for which the binding result was “binds”.
